In patent US20160229907A1 (published 2016):

Target: T1, Human PCSK9 form a' (human, UniProt Q8NBP7 31-692)
T1 construct: also called PCSK9 a'
Test: SPR (ProteOn XPR36), antibody captured on anti-human IgG, PCSK9 as analyte, 25 C, 1:1 model

Binder	Kd	koff	kon
Antibody 316P (antibody, V domains shown) VH: EVQLVESGGGLVQPGGSLRLSCAASGFTFNNYAMNWVRQAPGKGLDWVSTISGSGGTTNYADSVKGRFIISRDSSKHTLYLQMNSLRAEDTAVYYCAKDSNWGNFDLWGRGTLVTVSS VL: not shown	0.181 nM	0.000272 s⁻¹	1.5e+06 M⁻¹ s⁻¹
Evolocumab (antibody, V domains shown) VH: QVQLVQSGAEVKKPGASVKVSCKASGYTLTSYGISWVRQAPGQGLEWMGWVSFYNGNTNYAQKLQGRGTMTTDPSTSTAYMELRSLRSDDTAVYYCARGYGMDVWGQGTTVTVSS VL: QSALTQPASVSGSPGQSITISCTGTSSDVGGYNSVSWYQQHPGKAPKLMIYEVSNRPSGVSNRFSGSKSGNTASLTISGLQAEDEADYYCNSYTSTSMVFGGGTKLTVL	0.185 nM	2.29e-05 s⁻¹	124000 M⁻¹ s⁻¹
